Substrate in the data set: O=[N+]([O-])O
The experiment in a line: nitrate reduction with reduced Fd, Michaelis-Menten fit. The following applies: saturating reduced Synechocystis sp. PCC 6803 ferredoxin as electron donor. Type of data set: biochemical, Synechococcus elongatus.

Usually Km stands for the substrate concentration at which the rate is half of its maximum.

Substitutions are numbered along the chain they refer to. Names and notes keep the numbering of the source.

B1: Synechococcus sp. PCC 7942 NR (ferredoxin-dependent nitrate reductase) (Synechococcus elongatus PCC 7942 = FACHB-805; K215R) (protein)
chain: MIDTAKTLCPYCGVGCGLEAVPPAQPGRATVRDREGTPIWQIRGDRQHPSSQGMVCVKGATVAESVSKSRLKYPMFRASLDDPFTEISWDEALDRLCDRIQQTQADYGKDGICFYGSGQFQTEDYYIAQKLVKGCLGTNNFDTNSRLCMSSAVSAYSLCLGSDGPPACYEDLDLADCLLIVGSNTAECHPILFNRYRKRHRQGGTNLIVVDPRCTPTAEVADLHLALKPGSDVALLNGLGWLLYQMGYVKKDFIANQTEGFEDWLAIIEDYPPQRTAELTGLAVAELVRAADLIASAQRWLSLWSMGVNQSIQGTAKATSLINLHLLTRQIGLPGCGPFSLTGQPNAMGGRETGGLAHLLPGYRKVIDPQHRADVETIWGLPMGSISPQPGRTAWQMIEGLEQGAVGFLWVAATNPAVSLPDVKRAQAALKRSPFTVLQDAYHPTETTTYAHLLLPAAQWSEKTGTMTNSERRVTLCQAFRQPPGEARADWQIFAEVGRRLGFAFDYTDAAAVFAEYVQVTAGRLCDLSGLSHELLAQAGPQQWPFPAGAEPTTESKRLYTKHHFAYADGRARFQPFHHLGVAEPPDDRYPLVLTVGRLYGHWHTQTRTGRIDKINKLHPSAFVEIHPRDADRYNISEGQAVVIRSRRGEGCFPAKVTTAISPGVLFVPMHWGALWGDRTEANALTHPAACPISGEPELKACAVQIEAASSTFTI
On to B1, for which the Km turned out to be 9.6 ± 1.0 µM.

B2: Synechococcus sp. PCC 7942 NR (ferredoxin-dependent nitrate reductase) (Synechococcus elongatus PCC 7942 = FACHB-805; R57K) (protein)
chain: B1 chain with R43K, R201K
In the case of B2, the Km is 8.1 ± 0.7 µM.

B3: Synechococcus sp. PCC 7942 NR (ferredoxin-dependent nitrate reductase) (Synechococcus elongatus PCC 7942 = FACHB-805; E233Q) (protein)
chain: B1 chain with R201K, E219Q
Regarding B3, the Km was 4.5 ± 0.4 µM.

B4: Synechococcus sp. PCC 7942 NR (ferredoxin-dependent nitrate reductase) (Synechococcus elongatus PCC 7942 = FACHB-805; K628R) (protein)
chain: B1 chain with R201K, K614R
Turning to B4, the Km is listed as 4.2 ± 0.5 µM.

B5: Synechococcus sp. PCC 7942 NR (ferredoxin-dependent nitrate reductase) (Synechococcus elongatus PCC 7942 = FACHB-805; R211Q) (protein)
chain: B1 chain with R197Q, R201K
On to B5, for which the Km stood at 7.0 ± 0.7 µM.

B6: Synechococcus sp. PCC 7942 NR (ferredoxin-dependent nitrate reductase) (Synechococcus elongatus PCC 7942 = FACHB-805; R60K) (protein)
chain: B1 chain with R46K, R201K
On to B6, for which the Km was found to be 6.6 ± 1.0 µM.

B7: Synechococcus sp. PCC 7942 NR (ferredoxin-dependent nitrate reductase) (Synechococcus elongatus PCC 7942 = FACHB-805; R60Q) (protein)
chain: B1 chain with R46Q, R201K
As to B7, the Km is 55 ± 20 µM.

The values above are taken from paper PMC5645249.
